How the values were obtained:
[1] = Brain clearance technique: clearance of radiolabelled tracer from brain ISF and across the BBB after microinjection into the caudate nucleus; assay type: in vivo; details: for clearance from the brain ISF: 40 nM tracer microinjected into brain ISF, FIG. 1A/1B
Protocol: The brain clearance technique was used to determine Aβ clearance across the BBB and from CSF, as previously described (Shibata et al., 2000; Deane et al., 2004). Briefly, 0.5 μl of ^125I-Aβ42 (40 nM), ^125I-apoJ (40 nM) or ^125I-Aβ-apoJ (40 nM) was microinjected into the caudate nucleus simultaneously with ^14C-inulin (an inert reference molecule as an index of interstitial fluid (ISF) bulk flow) and, after 30 minutes (a typical time point unless stated), the brain was removed and radiolabel was counted.
^125I-Aβ-apoJ complex was prepared by incubating ^125I-Aβ42 and apoJ at a molar ratio of 15 to 1 (^125I-Aβ42: apoJ) at 37° C. for 3 hours, and excess ^125I-Aβ42 was removed by ultrafiltration with a 30 kD molecular weight cut-off membrane.
(§1) Percentage ^125I-(TCA precipitable) recovery in brain=NB/NI×100. Where NB is the ^125I-(TCA precipitable) recovered in brain and NI is the ^125I-(TCA precipitable) injected into brain ISF or CSF. Total ^125I-(TCA precipitable) clearance from brain ISF consists of two components: clearance across the BBB and clearance via bulk flow of ISF. Therefore, clearance across the BBB was calculated from the difference between total ^125I-(TCA precipitable) clearance and ^14C-inulin clearance (ISF bulk flow) as described (Shibata et al., 2000). Similarly, the percentage ^125I-(TCA precipitable) recovery in brain after microinjection into the CSF=NB/NI×100.

[2] = CSF clearance study: microinjection into the lateral ventricle; assay type: in vivo; details: 40 nM; after 30 minutes; microinjection into the lateral ventricles; FIG. 1E
Protocol: In the CSF clearance studies, 0.5 μl of ^125I-apoJ (40 nM) was micro-injected into the right lateral ventricles (coordinates (mm) from bregma: antero-posterior −0.5, mediolateral +1.0, dorsoventral −2.2) simultaneously with ^14C-inulin (the inert reference molecule), the brain was removed after 30 minutes, and radiolabel was counted.
as §1

[3] = after microinjection into the brain, FIG. 1C

| Substance | clearance from the brain ISF [1] | clearance from brain relative to ^125I-Aβ42 (40 nM) ([1]; 40 nM, time-dependent clearance, FIG. 1B) | levels in plasma, compared to inulin [1, 3] | time dependent appearance of TCA precipitable radioactivity in CSF, compared to ^14C-inulin [1, 3] | clearance from the CSF as compared to ^14C-inulin [2] | clearance of ^125I-Aβ42 across the BBB ([1]; in vivo) | clearance via the ISF bulk flow ([1]; in vivo) |
| --- | --- | --- | --- | --- | --- | --- | --- |
| inulin [^14C-inulin, reference compound] | slowly removed | – | – | – | – | – | – |
| ^125I-apoJ: apolipoprotein J, an 80 kDa sulfated glycoprotein, ligand of LRP2, radioiodinated tracer | rapidly cleared | substantially faster | relatively increased | decreased | rapidly cleared | – | – |
| ^125I-Aβ42: amyloid-β peptide Aβ42, amyloidogenic with high β-sheet content, radioiodinated tracer [reference compound] | – | – | – | – | – | 22%±2% | no a significant change |

Source: US20090156525A1, “Low-Density Lipoprotein Receptor-Related Protein 2 Clears Amyloid-Beta Peptide A cross the Blood-Brain Barrier via Apolipoprotein J” (priority 2005, published 2009)
